Results: patent US20200208174

How the values were obtained:
[1] = target: CD38 TALEN Left (artificial) (UniProt Q56830); test: cell_activity; settings: paired with CD38 TALEN Right; simultaneous electroporation with TRAC and CD52 TALEN
[2] = target: CD38 TALEN Right (artificial) (UniProt Q56830); test: cell_activity; settings: paired with CD38 TALEN Left; simultaneous electroporation with TRAC and CD52 TALEN

| Substance | activity (% CD38-negative cells) [1] | activity (% CD38-negative cells) [2] |
| --- | --- | --- |
| CD38 left half-site | 66.1 | – |
| CD38 right half-site | – | 66.1 |
